Experimental findings from a protein production outcome set (Wang et al. 2014) are described below.

The data set in a line: label from the status in PepcDB records.
As for “MRRNTALTRIMASGVAAIMLCAGGTFTVNAAEEEPVKADVSVKAIQGLSDDFIGGMDVSSMLSLEESGVTFKNANGEVEDLFTLLKESGVNYVRLRVWNDPFTADGQGYGGGNVNADRALTMAKRATAAGLKVLVDFHYSDFWADPSKQQVPKAWKSFEGDADKTADTVYDYTKQTLTTFKQAGVDVGMVQVGNETTAKIAGISGWDGMSKVFSAGSKAIREVLPEAKVVIHFTNPEKAGTYATYAKQLSNHNVDYDVFASSYYPFWHGTTENLTSVLKNVASTYKKDVMVAETSWAYTLDDGDDDSNTVPSKVTADNLKKYDISPQGQADEIRAVAEAVNNIGDNDGDGENDGLGVFYWEPAWVPVGTGGKDNAELVDTWNKYGGGWATEAAGEYDPNDAGLYWGGSGVDNQALFDFDGKALASLPTFKYIHTGAVTDHVFTKIDPVEITATDSDSIDAIKAQLPSEVAAHYQDGVDETETVTWQSAALDWIRGAGTYTITGTTNAGHDVTVTVTVTATPAKDYVTDGSFENAENDKNWTIAGTGASITEDSGNAADGKRALKFWASDAYSFSATQTITGLEPGEYVLTAMSQGAAADNAAITDGVALSATTGGKTTSDALELNGWVKFDTATVPVTVGADGTATITITGNLPADAWGNVDKVSLVKKTETPVKPSTENLDKAVAEAGKINRDEYTNESLAKLDQALAAADVLLAGSTYTEQDVNDVIKLVADAIAGLAQKEVSSLTVTPSKTTYQVGDAIDADHDLKVVGNYSAGMGNVTLSADQFTLDYDFSAPADAAKVTVTLKSNPNVTETYTVAVTARAEGGSGNGSDGAGNGGATINPDTGEGDKTNGANGDKITGVLSNTGSAVTAVGLAVVVLGVAGGVSLALRRKRS”, the protein production result is on record as “failed”.

Turning to “MRRREGHGTDSEMGQGPVRESQSSDPPALQFRISEYKPLNMAGVEQPPSPELRQEGVTEYEDGGAPAGDGEAGPQQAEDHPQNPPEDPNQDPPEDDSTCQCQACGPHQAAGPDLGSSNDGCPQLFQERSVIVENSSGSTSASELLKPMKKRKRREYQSPSEEESEPEAMEKQEEGKDPEGQPTASTPESEEWSSSQPATGEKKECWSWESYLEEQKAITAPVSLFQDSQAVTHNKNGFKLGMKLEGIDPQHPSMYFILTVAEVCGYRLRLHFDGYSECHDFWVNANSPDIHPAGWFEKTGHKLQPPKGYKEEEFSWSQYLRSTRAQAAPKHLFVSQSHSPPPLGFQVGMKLEAVDRMNPSLVCVASVTDVVDSRFLVHFDNWDDTYDYWCDPSSPYIHPVGWCQKQGKPLTPPQDYPDPDNFCWEKYLEETGASAVPTWAFKVRPPHSFLVNMKLEAVDRRNPALIRVASVEDVEDHRIKIHFDGWSHGYDFWIDADHPDIHPAGWCSKTGHPLQPPLGPREPSSASPGGCPPLSYRSLPHTRTSKYSFHHRKCPTPGCDGSGHVTGKFTAHHCLSGCPLAERNQSRLKAELSDSEASARKKNLSGFSPRKKPRHHGRIGRPPKYRKIPQEDFQTLTPDVVHQSLFMSALSAHPDRSLSVCWEQHCKLLPGVAGISASTVAKWTIDEVFGFVQTLTGCEDQARLFKDEARIVRVTHVSGKTLVWTVAQLGDLVCSDHLQEGKGILETGVHSLLCSLPTHLLAKLSFASDSQY”, the protein production result was “failed”. The entry for “MRRSRRAALAACLILAIAATPGAVLAQTVDELYASAVKARQARHFDEAVDLLRRALALKPDNADALVQLGFAELGRNDLAAARDAFSKALSLAPTYQDASFGLAEIEFRSGNLDAALPLAESVARAQPGNTDAAALVENIRKAMQAAGGEARKASVAAPRAKPRPDPVAGLMEQGRRLRTAGKLPEAEKVYRRALGLAPKNTDILVALGLIVGSSQRFDEAGHFFDRALAIKPGLLDARIGKIRMAIWQGDVPSARALVDDVLASSPDNVEALDLDAKVALLEADYTRAGQSFQRVLAIDPRNAEALVGIGDVRRAQGDDDAARQAYREALAIEPGSSDIEQRLAVPPPRKWRLDLGTEVSDLTNGLSDWTDSSAGLAYRLSPRTTISGRTRVATRFGRTDVQIEGRIDEAFSPAFSAYAFAAATPDADFLARYSIGAGASLQVMAAAKAFGPLSLNIDTRYDNFTNTNVTSVSPWVQGYIFDGRLGLSARWVHAADDIGTRADGYVLRVDLAMAQRFNLFGGYADAPEISDGTLVPTRTVFGGISWDVNDPLTLRASIAHEQRPTFDRSIFGLGLTARF” is “failed”.

With “MRRTRRPRFVLMNKMDDLNLHYRFLNWRRRIREIREVRAFRYQERFKHILVDGDTLSYHGNSGEVGCYVASRPLTKDSNYFEVSIVDSGVRGTIAVGLVPQYYSLDHQPGWLPDSVAYHADDGKLYNGRAKGRQFGSKCNSGDRIGCGIEPVSFDVQTAQIFFTKNGKRVGSTIMPMSPDGLFPAVGMHSLGEEVRLHLNAELGREDDSVMMVDSYEDEWGRLHDVRVCGTLLEYLGKGKSIVDVGLAQARHPLSTRSHYFEVEIVDPGEKCYIALGLARKDYPKNRHPGWSRGSVAYHADDGKIFHGSGVGDPFGPRCYKGDIMGCGIMFPRDYILDSEGDSDDSCDTVILSPTARAVRNVRNVMYLHQEGEEEEEEEEEEEDGEEIEPEHEGRKVVVFFTRNGKIIGKKDAVVPSGGFFPTIGMLSCGEKVKVDLHPLSG”, the protein production result is recorded as “not failed”.

On to “MRRYRTCDNPPPSNGGRACGGPDSQIQRCNTDMCPVDGSWGSWHSWSQCSASCGGGEKTRKRLCDHPVPVKGGRPCPGDTTQVTRCNVQACPGGPQRARGSVIGNINDVEFGIAFLNATITDSPNSDTRIIRAKITNVPRSLGSAMRKIVSILNPIYWTTAKEIGEAVNGFTLTNAVFKRETQVEFATGEILQMSHIARGLDSDGSLLLDIVVSGYVLQLQSPAEVTVKDYTEDYIQTGPGQLYAYSTRLFTIDGISIPYTWNHTVFYDQAQGRMPFLVETLHASSVESDYNQIEETLGFKIHASISKGDRSNQCPSGFTLDSVGPFCADEDECAAGNPCSHSCHNAMGTYYCSCPKGLTIAADGRTCQDIDECALGRHTCHAGQDCDNTIGSYRCVVRCGSGFRRTSDGLSCQDINECQESSPCHQRCFNAIGSFHCGCEPGYQLKGRKCMDVNECRQNVCRPDQHCKNTRGGYKCIDLCPNGMTKAENGTCIDIDECKDGTHQCRYNQICENTRGSYRCVCPRGYRSQGVGRPCMDIDECENTDACQHECKNTFGSYQCICPPGYQLTHNGKTCQDIDECLEQNVHCGPNRMCFNMRGSYQCIDTPCPPNYQRDPVSGFCLKNCPPNDLECALSPYALEYKLVSLPFGIATNQDLIRLVAYTQDGVMHPRTTFLMVDEEQTVPFALRDENLKGVVYTTRPLREAETYRMRVRASSYSANGTIEYQTTFIVYIAVSAYPY”, for which the protein production result was “failed”. To “MRSATDLLDELNAVDESARIEAKRASDMGKSVMETVIAFANEPGLDGGYLLLGVDWAINDKGDTVYRPVGLPDPDKVQRDLASQCASMLNVALRPEMQLEQVGGKTLLVVYVPEADVTHKPIYKKATGLPGGAYRRIGSSDQRCVDEDLWVLRGLEHHHHHH” belongs “not failed”; to “MRSGRPLYWIFLLLAFSLLAVLVYVCVAVIPDLRNHPNARRSLKRVRSTLDPQREQRDASRRLDVADTPENRRQLAETLLARGDYAQAAEHYQGALRGLYRDDPHLMLGLAKAQFGLGQPQQTRQTLDALIAANPSFRSHDGHLLYARAVEGSGDTDAALHEYDTLAQGYPGEEARVRYAQLLQRIARNDQARAVYEQVLRHAAASPKHYQREQRAWVDLARKGLRELDTGA”, “failed”; to “MRSLMATRAKPNKKQNASARGKKPAWLGGIGLRQVRMFCGLVLFTYLLSHFLNHALGNISPEALHAGVLWHLEIWQFLPVAILFYGSVTVHAGLGLWALYQRRQFRWKTLEPLQLVLGLSVPLMIYSHVIVMRLGNVLYDQDRLYPQVLYNYFVASPSYRAWLMVAVMLIAWTHGCIGLYVWLRIKPAFRRAMPWLLAAAVLIPTLALLGFYQGGRTVAREAASPQWQANNLAPANLGTPEQQQTLEAIGNGFLIFYLGLIALALIARAVRAIIERRGGMVRLTYDGERSIRVPKGLTVLEATQRHNIPHASACGGRARCSTCRIRVLGDPATLPPPSPREAFVLASIGTGDDPSIRLACQLKPTQDLTFLPVFPPRNVAAARKAARAARIGEERYLVSMFVDMRGSTKLAESRLPFDTVFIVNRFLGAVSRSVIACGGQPNQFVGDGMLALFGLAETPREACRNAVRAAAAIGAAIDELNNFLGHDLPEPIRFGIGIHSGEVVVGEIGYRDHMVFTALGDSVNVASRLQDMTKSLGCETLLSDELRATAGLSEQALPTLELEIRGRTEPMLVCVVERAGDLVAVLNEDLVLA”, “failed”. To “MRSRGEPLPAGGRMKTLAFVALALAGISWGLGFPTGKLILRETDAAHMVLLRFLVAAVAAAPFALRRPEVRALFRSPIVLLAGALYGVAFLVQFEGLAHVSVTVAALLVGAMPALIAVSARVLGEKVSRLSWAGVAAATLGAALIAGKPDGASSPLGVALSIAALFLFLTWLLVLRRAPPAPNPMAIPAVSIIVAALVVLPIALIMHGPPKLALSAPAWTAIVAQGVLATLLATAAWQYGAAQVGAASAGVFINIEPLMGAACGVLLFGDHLTAALFAGGLLIIGGSFAVVMGERQAKPGEIQATVAPTP” belongs “failed”; to “MRTAVAVPYHSGIRLPLLFEKNARMTETIDTNVFNLAPVAMWIEDFSEVKSQFDIWRAEGIEDIRAFLLEDLSRVAACSQKIRVIEVNAKTLELFEARDQAHLVDNLHRIFRDDMLESHVNELSELWAGRTEFTSNAVNYSIGGRRLDIQLRGTVIPGHEDTLGRLLLTTEDVTEREEARRKELLNRRYAEGMFKHSPVSLWVEDFSRVRRLIEEVRERGIVDFRVFMDVHPEFVRQCMSEIRVIDVNQATLDLFCAADRQVLLQRLGDIFRGEMEKPFREQLIELWNGNLTHHREVVNYALDGSERHVLLHFSVFPGHERDWSLVQVALTDITARKKAEAYLEYLGKHDVLTKLHNRAFYSDELNRLERSALRPVSAIVIDLNGLKEANDKLGHDAGDALLRRVGEVLNGVVTAPNHAARIGGDEFAILLPGADKQVAAAMVDTVYELLKINNQFYSSAPLSLSLGVATTEAGETMESLVRRADMNMYEQKNAYYAALRNRSADNNDTTKGGSQSETTSLKRLF”, “failed”; to “MRTEPQPLHLPVFRAILASMGEGIIFADADDRIRYINAAAEDIRGIIAGNYLGRSIVSIHSPASEGRIRRLIAGLKGGDIPFSTRVIHVREKIFENSYYPIRNENGIYEGTLLISRDITEKELLKEENNSLREQVRADFACGGMIGKSHAMEPVFHMIRATAALDSTILISGESGTGKELVACAIHQMSPRHKNPFVKVNCAALPETLLESELFGHERGAFTGAVRERKGKFEQAHLGTIFLDEIGEMPLAAQAKLLRVIQGKTLERIGGNREIAVDVRIIAATNKDLRREVERGAFREDLFYRLNVIPIHLPPLRERREDILPLAEHFLSVYAERMRKPVHCIAPDARKALLDYDYPGNVRELENAIERGVALSMGETITLADLAPYFVTGASAAPAGAALPKEPPTATLSRAVSVAEQEAIREALQTTGNRKGVAAKLLGISRKTLWEKLKQMERT”, “failed”. For “MRTIAFALALLATPVAAELEAARDLMDAGRFDEAYAALWPAARSGNAEAEELIGVIYAMGLGRPRDDQRAFEWYLRAAMKGHPGAQSGVGWYYEVGRGLPAPDLMRAYMWYTLSAIGGDPDAAISLEEVAKKMTAEEINKAHVLVADYKVWMYPFR”, the protein production entry is “failed”. To “MRTLAVISAGLSTPSSTRQIADSISEAVTAAVSARGEALSVSTIELSELIPDLMTAMTTRVHTTKLEEITSALSASDGLVVATPVFKASYTGLFKMFFDILDTDALTGMPTIIAATAGSARHSLVLDYALRPLLSYMRAVVVPTGVFAATEDFGGPEGAEFNKRIARAAGELASLIVEESGNVGLEHHHHHH” belongs “failed”.
